Measurements reported in patent US20220228164A1, “ENGINEERED ANTIGEN PRESENTING CELLS” (Neogene Therapeutics B.V., priority 2021, published 2022).

Experiments:
[1] = tested on: NY-ESO 5B8 TCR transduced Jurkat cells; assay: TMG-expressing BCL-6/BCL-xL B cells with or without CD40L, co-culture with TCR Jurkat cells, CD69 (Example 7); format: cell-based, human; details: BCL-6/BCL-xL immortalized B cells, two donors, 20 hours
Procedure: (§1) B cells from two healthy donors are isolated and immortalized by transduction with BCL-6/BCL-xL as described in Example 5 and 10 of this invention. In this Example, B cells are either transduced with BCL-6/BCL-xL alone or in combination with a CD40L transgene. After immortalization B cells are transduced with different TMG constructs encoding different numbers of 25mer polypeptides (1, 3, 12 or 40) and including LAMP1 signaling and transmembrane sequences. 96 hours post-transductions TMG-expressing B cells are enriched by antibiotic resistance selection as described in Examples 5 and 10. […]
(§2) TCR expressing Jurkat T cells specific for two NY-ESO-1 derived T cell epitopes (5B8 epitope SLLMWITQCFLPVF; SEQ ID NO: 3; MHC-class II restricted T cell epitope and 1G4 epitope SLLMWITQC; SEQ ID NO: 4; MHC-class I restricted T cell epitope) are generated as described in Examples 5 and 10. […] After co-culture, CD69 expression by TCR transduced Jurkat T cells is measured by flow cytometry.
(§3) FIG. 11A is Donor 1: NY-ESO 1G4 TCR transduced T cell reactivity towards TMG transduced BCL-6/BCL-XL immortalized B cells with or without CD40L. […] NY-ESO 1G4 TCR transduced Jurkat cells directed against one of the epitopes presented on Class I were then co-cultured with the B cells and reactivity was assessed by flowcytometry focusing on upregulation of CD69 on T cells. […]

[2] = tested on: NY-ESO 1G4 TCR transduced Jurkat cells; assay: as above; format: cell-based, human; details: BCL-6/BCL-xL immortalized B cells, two donors, 20 hours
Procedure: as §1, §2, §3

B1: CD40L transgene: hCD40L transgene expressed in BCL-6/BCL-xL immortalized B cells (protein)
DNA: MIETYNQTSPRSAATGLPISMKIFMYLLTVFLITQMIGSALFAVYLHRRLDKIEDERNLHEDFVFMKTIQRCNTGERSLSLLNCEEIKSQFEGFVKDIMLNKEETKKENSFEMQKGDQNPQIAAHVISEASSKTTSVLQWAEKGYYTMSNNLVTLENGKQLTVKRQGLYYIYAQVTFCSNREASSQAPFIASLCLKSPGRFERILLRAANTHSSAKPCGQQSIHLGGVFELQPGASVFVNVTDPSQVSHGTGFTSFGLLKL
MHC-class II antigen presentation (CD69 expression by TCR transduced Jurkat T cells) [1]: can increase
MHC-class I antigen-presentation (CD69 expression by TCR transduced Jurkat T cells) [2]: can increase
